The values that follow come from US8017829.

This data set deals with Cre recombinase (bacteriophage P1?). Briefly: cell_activity. The note with it: rice plant crosses; excision confirmed by Southern blot.

On to lox site, for which the activity (% GUS+ progeny (19/75)) was 25.3.
